The test deals with T1, wild-type rat NTF2 (nuclear transport factor 2) (rat, UniProt P61972 1-127).
T1 construct: also called wild-type NTF2; source: E. coli BL21(DE3) CodonPlus RIL, purified (NiNTA agarose, gel filtration Superdex S-75)
Put plainly: SPR; Biacore T100, 25°C, PBS pH 7.2; Nsp1p fragment grafted on gold; multivalent kinetic analysis: discrete distribution of kinetic states (kon,i, koff,i), interaction maps averaged over ~10 sensorgrams. As to conditions: both partners purified. (In SPR one partner is held on a chip, and binding of the other changes the refractive index at the surface.)

T1 sequence (P61972 whole entry): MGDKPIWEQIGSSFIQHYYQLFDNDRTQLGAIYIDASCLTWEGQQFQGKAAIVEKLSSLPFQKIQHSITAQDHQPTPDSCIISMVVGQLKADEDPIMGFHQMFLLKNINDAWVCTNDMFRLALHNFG

B1: Nsp1p-5FF (yeast Nsp1p FG fragment, residues 262-359; 1x FG, 4x FSFG) (domain or fragment)
chain: not shown
notes: Nsp1p, yeast, FG fragment residues 262-359 (1x FG, 4x FSFG), in a modified pET30a vector; Grafted to the gold SPR sensor through the added N-terminal Cys residues; The vector carries a TEV site in place of the thrombin site; no cleavage is described; source: E. coli BL21(DE3) CodonPlus RIL, purified (NiNTA agarose, Superdex S-75); not shown: Cys-Cys-Trp (after the initiator Met), N-terminal, …
Take B1: the binding result is “binds”.
